Laboratory results: IntAct's records for PubMed 26918958

B1: Latent-transforming growth factor beta-binding protein 4 (Homo sapiens), Q8N2S1-1 (parent)
chain: MPRPGTSGRRPLLLVLLLPLFAAATSAASPSPSPSQVVEVPGVPSRPASVAVCRCCPGQTSRRSRCIRAFCRVRSCQPKKCAGPQRCLNPVPAVPSPSPSVRKRQVSLNWQPLTLQEARALLKRRRPRGPGGRGLLRRRPPQRAPAGKAPVLCPLICHNGGVCVKPDRCLCPPDFAGKFCQLHSSGARPPAPAVPGLTRSVYTMPLANHRDDEHGVASMVSVHVEHPQEASVVVHQVERVSGPWEEADAEAVARAEAAARAEAAAPYTVLAQSAPREDGYSDASGFGYCFRELRGGECASPLPGLRTQEVCCRGAGLAWGVHDCQLCSERLGNSERVSAPDGPCPTGFERVNGSCEDVDECATGGRCQHGECANTRGGYTCVCPDGFLLDSSRSSCISQHVISEAKGPCFRVLRDGGCSLPILRNITKQICCCSRVGKAWGRGCQLCPPFGSEGFREICPAGPGYHYSASDLRYNTRPLGQEPPRVSLSQPRTLPATSRPSAGFLPTHRLEPRPEPRPDPRPGPELPLPSIPAWTGPEIPESGPSSGMCQRNPQVCGPGRCISRPSGYTCACDSGFRLSPQGTRCIDVDECRRVPPPCAPGRCENSPGSFRCVCGPGFRAGPRAAECLDVDECHRVPPPCDLGRCENTPGSFLCVCPAGYQAAPHGASCQDVDECTQSPGLCGRGACKNLPGSFRCVCPAGFRGSACEEDVDECAQEPPPCGPGRCDNTAGSFHCACPAGFRSRGPGAPCQDVDECARSPPPCTYGRCENTEGSFQCVCPMGFQPNTAGSECEDVDECENHLACPGQECVNSPGSFQCRTCPSGHHLHRGRCTDVDECSSGAPPCGPHGHCTNTEGSFRCSCAPGYRAPSGRPGPCADVNECLEGDFCFPHGECLNTDGSFACTCAPGYRPGPRGASCLDVDECSEEDLCQSGICTNTDGSFECICPPGHRAGPDLASCLDVDECRERGPALCGSQRCENSPGSYRCVRDCDPGYHAGPEGTCDDVDECQEYGPEICGAQRCENTPGSYRCTPACDPGYQPTPGGGCQDVDECRNRSFCGAHAVCQNLPGSFQCLCDQGYEGARDGRHCVDVNECETLQGVCGAALCENVEGSFLCVCPNSPEEFDPMTGRCVPPRTSAGTFPGSQPQAPASPVLPARPPPPPLPRRPSTPRQGPVGSGRRECYFDTAAPDACDNILARNVTWQECCCTVGEGWGSGCRIQQCPGTETAEYQSLCPHGRGYLAPSGDLSLRRDVDECQLFRDQVCKSGVCVNTAPGYSCYCSNGYYYHTQRLECIDNDECADEEPACEGGRCVNTVGSYHCTCEPPLVLDGSQRRCVSNESQSLDDNLGVCWQEVGADLVCSHPRLDRQATYTECCCLYGEAWGMDCALCPAQDSDDFEALCNVLRPPAYSPPRPGGFGLPYEYGPDLGPPYQGLPYGPELYPPPALPYDPYPPPPGPFARREAPYGAPRFDMPDFEDDGGPYGESEAPAPPGPGTRWPYRSRDTRRSFPEPEEPPEGGSYAGSLAEPYEELEAEECGILDGCTNGRCVRVPEGFTCRCFDGYRLDMTRMACVDINECDEAEAASPLCVNARCLNTDGSFRCICRPGFAPTHQPHHCAPARPRA

Variants of: B1
Conditions: with tgfb1_human TGFB1, P01137
Chain of tgfb1_human TGFB1, P01137 (P01137 whole entry): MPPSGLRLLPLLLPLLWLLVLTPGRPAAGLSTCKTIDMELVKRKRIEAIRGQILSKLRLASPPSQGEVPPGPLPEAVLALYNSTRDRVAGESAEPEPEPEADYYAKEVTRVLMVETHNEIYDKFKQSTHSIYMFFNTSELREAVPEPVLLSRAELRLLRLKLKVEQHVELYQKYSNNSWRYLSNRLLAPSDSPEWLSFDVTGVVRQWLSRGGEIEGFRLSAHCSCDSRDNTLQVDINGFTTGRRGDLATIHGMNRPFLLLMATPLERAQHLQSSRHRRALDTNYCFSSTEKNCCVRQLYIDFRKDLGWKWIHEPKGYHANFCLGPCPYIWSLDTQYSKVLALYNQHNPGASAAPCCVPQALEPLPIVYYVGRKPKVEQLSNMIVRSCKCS

Row | Variant | effect of a mutation on the interaction
1 | T1141M | with no effect
2 | V194I;T787A;T820A;T1141M | with no effect
